Literature values in paper PMC6151437, “Antibacterial Synthetic Peptides Derived from Bovine Lactoferricin Exhibit Cytotoxic Effect against MDA-MB-468 and MDA-MB-231 Breast Cancer Cell Lines” (Molecules : A Journal of Synthetic Chemistry and Natural …, 2017).

Tested on: HT-29 cells
Design: method as in PMID 24140317
Conditions: maximum effects at 12 h of treatment

B1: BLF: Bovine lactoferrin, a milk protein (protein, UniProt P24627 20-708, looked up)
Lactotransferrin: APRKNVRWCTISQPEWFKCRRWQWRMKKLGAPSITCVRRAFALECIRAIAEKKADAVTLDGGMVFEAGRDPYKLRPVAAEIYGTKESPQTHYYAVAVVKKGSNFQLDQLQGRKSCHTGLGRSAGWIIPMGILRPYLSWTESLEPLQGAVAKFFSASCVPCIDRQAYPNLCQLCKGEGENQCACSSREPYFGYSGAFKCLQDGAGDVAFVKETTVFENLPEKADRDQYELLCLNNSRAPVDAFKECHLAQVPSHAVVARSVDGKEDLIWKLLSKAQEKFGKNKSRSFQLFGSPPGQRDLLFKDSALGFLRIPSKVDSALYLGSRYLTTLKNLRETAEEVKARYTRVVWCAVGPEEQKKCQQWSQQSGQNVTCATASTTDDCIVLVLKGEADALNLDGGYIYTAGKCGLVPVLAENRKSSKHSSLDCVLRPTEGYLAVAVVKKANEGLTWNSLKDKKSCHTAVDRTAGWNIPMGLIVNQTGSCAFDEFFSQSCAPGADPKSRLCALCAGDDQGLDKCVPNSKEKYYGYTGAFRCLAEDVGDVAFVKNDTVWENTNGESTADWAKNLNREDFRLLCLDGTRKPVTEAQSCHLAVAPNHAVVSRSDRAAHVKQVLLHQQALFGKNGKNCPDKFCLFKSETKNLLFNDNTECLAKLGGRPTYEEYLGTEYVTAIANLKKCSTSPLLEACAFLTR
optimal concentration for cytotoxic activity and apoptosis: 800 µg/mL
